Source: the supplement of paper PMC5998384

How the values were obtained:
HeLa Kyoto [1] = assay: solubility in G1/S (NP-40 vs SDS abundance) (log2 ratio); higher = more soluble; conditions: cell cycle stage: G1/S
HeLa Kyoto [2] = assay: melting temperature (median over replicates), in situ; higher = more thermally stable
HeLa Kyoto [3] = assay: solubility change mitosis vs G1/S (difference of NP-40 vs SDS log2 ratios) (log2 ratio difference); higher = more soluble in mitosis
HeLa Kyoto [4] = assay: thermal stability score vs G1/S (z-score of summed log2 fold changes over temperatures); higher = more thermally stable than in G1/S
[5] = cell cycle stage: early G1 (4.5 h after nocodazole release)
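Throughout, for melting temperature (median over replicates), in situ: HeLa Kyoto cells synchronized by double thymidine or nocodazole block, proteins quantified by TMT10plex mass spectrometry, three independent biological replicates.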
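Throughout, for solubility change mitosis vs G1/S (difference of NP-40 vs SDS log2 ratios): synchronized HeLa Kyoto cells (double thymidine block for G1/S, nocodazole release for mitosis), protein amounts in NP-40 versus SDS lysates quantified by mass spectrometry, three biological replicates.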
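Throughout, for solubility in G1/S (NP-40 vs SDS abundance): HeLa Kyoto cells arrested at G1/S by double thymidine block, proteins quantified by TMT10plex mass spectrometry in mild NP-40 versus SDS extracts, three biological replicates.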
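Throughout, for thermal stability score vs G1/S (z-score of summed log2 fold changes over temperatures): synchronized HeLa Kyoto cells, proteins quantified by TMT10plex mass spectrometry, three biological replicates, mitosis taken 0.5 h after nocodazole release, G1/S directly after double thymidine block.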

MSWFVDLAGKAEDLLNRVDQGAATALSRKDNASNIYSKNTDYTELHQQNTDLIYQTGPKSTYISSAADNIRNQKATILAGTANVKVGSRTPVEASHPVENASVPRPSSHFVRRKKSEPDDELLFDFLNSSQKEPTGRVEIRKEKGKTPVFQSSQTSSVSSVNPSVTTIKTIEENSFGSQTHEAASNSDSSHEGQEESSKENVSSNAACPDHTPTPNDDGKSHELSNLRLENQLLRNEVQSLNQEMASLLQRSKETQEELNKARARVEKWNADHSKSDRMTRGLRAQVDDLTEAVAAKDSQLAVLKVRLQEADQLLSTRTEALEALQSEKSRIMQDQSEGNSLQNQALQTFQERLHEADATLKREQESYKQMQSEFAARLNKVEMERQNLAEAITLAERKYSDEKKRVDELQQQVKLYKLNLESSKQELIDYKQKATRILQSKEKLINSLKEGSGFEGLDSSTASSMELEELRHEKEMQREEIQKLMGQIHQLRSELQDMEAQQVNEAESAREQLQDLHDQIAGQKASKQELETELERLKQEFHYIEEDLYRTKNTLQSRIKDRDEEIQKLRNQLTNKTLSNSSQSELENRLHQLTETLIQKQTMLESLSTEKNSLVFQLERLEQQMNSASGSSSNGSSINMSGIDNGEGTRLRNVPVLFNDTETNLAGMYGKVRKAASSIDQFSIRLGIFLRRYPIARVFVIIYMALLHLWVMIVLLTYTPEMHHDQPYGK [GOLGA5]
solubility in G1/S (log2) (HeLa Kyoto [1]): 0.284
melting temperature (HeLa Kyoto [2]; cell cycle stage: G1/S): 52.7 °C
melting temperature (HeLa Kyoto [2]; cell cycle stage: mitosis): 53 °C
solubility change mitosis (log2) (HeLa Kyoto [3]): -0.148
thermal stability score (HeLa Kyoto [4]; [5]): 1.32
thermal stability score (HeLa Kyoto [4]; cell cycle stage: mitosis): 2.34

MSWLFGINKGPKGEGAGPPPPLPPAQPGAEGGGDRGLGDRPAPKDKWSNFDPTGLERAAKAARELEHSRYAKDALNLAQMQEQTLQLEQQSKLKEYEAAVEQLKSEQIRAQAEERRKTLSEETRQHQARAQYQDKLARQRYEDQLKQQQLLNEENLRKQEESVQKQEAMRRATVEREMELRHKNEMLRVEAEARARAKAERENADIIREQIRLKAAEHRQTVLESIRTAGTLFGEGFRAFVTDWDKVTATVAGLTLLAVGVYSAKNATLVAGRFIEARLGKPSLVRETSRITVLEALRHPIQVSRRLLSRPQDALEGVVLSPSLEARVRDIAIATRNTKKNRSLYRNILMYGPPGTGKTLFAKKLALHSGMDYAIMTGGDVAPMGREGVTAMHKLFDWANTSRRGLLLFVDEADAFLRKRATEKISEDLRATLNAFLYRTGQHSNKFMLVLASNQPEQFDWAINDRINEMVHFDLPGQEERERLVRMYFDKYVLKPATEGKQRLKLAQFDYGRKCSEVARLTEGMSGREIAQLAVSWQATAYASEDGVLTEAMMDTRVQDAVQQHQQKMCWLKAEGPGRGDEPSPS [ATAD3A]
solubility in G1/S (log2) (HeLa Kyoto [1]): -0.0262
melting temperature (HeLa Kyoto [2]; cell cycle stage: G1/S): 50.5 °C
melting temperature (HeLa Kyoto [2]; cell cycle stage: mitosis): 51 °C
solubility change mitosis (log2) (HeLa Kyoto [3]): -0.0269
thermal stability score (HeLa Kyoto [4]; [5]): -0.608
thermal stability score (HeLa Kyoto [4]; cell cycle stage: mitosis): 0.271

MSWVQATLLARGLCRAWGGTCGAALTGTSISQVPRRLPRGLHCSAAAHSSEQSLVPSPPEPRQRPTKALVPFEDLFGQAPGGERDKASFLQTVQKFAEHSVRKRGHIDFIYLALRKMREYGVERDLAVYNQLLNIFPKEVFRPRNIIQRIFVHYPRQQECGIAVLEQMENHGVMPNKETEFLLIQIFGRKSYPMLKLVRLKLWFPRFMNVNPFPVPRDLPQDPVELAMFGLRHMEPDLSARVTIYQVPLPKDSTGAADPPQPHIVGIQSPDQQAALARHNPARPVFVEGPFSLWLRNKCVYYHILRADLLPPEEREVEETPEEWNLYYPMQLDLEYVRSGWDNYEFDINEVEEGPVFAMCMAGAHDQATMAKWIQGLQETNPTLAQIPVVFRLAGSTRELQTSSAGLEEPPLPEDHQEEDDNLQRQQQGQS [ECSIT]
solubility in G1/S (log2) (HeLa Kyoto [1]): -0.0136
melting temperature (HeLa Kyoto [2]; cell cycle stage: G1/S): 54.4 °C
melting temperature (HeLa Kyoto [2]; cell cycle stage: mitosis): 56.1 °C
solubility change mitosis (log2) (HeLa Kyoto [3]): -0.1
thermal stability score (HeLa Kyoto [4]; [5]): 2.4
thermal stability score (HeLa Kyoto [4]; cell cycle stage: mitosis): 3.63

MTCYRGFLLGSCCRVAGGRAAALRGPGAGGPAARPRLGGDGGGRRHLGQGQPRELAGCGSRADGGFRPSRVVVVAKTTRYEFEQQRYRYAELSEEDLKQLLALKGSSYSGLLERHHIHTKNVEHIIDSLRNEGIEVRLVKRREYDEETVRWADAVIAAGGDGTMLLAASKVLDRLKPVIGVNTDPERSEGHLCLPVRYTHSFPEALQKFYRGEFRWLWRQRIRLYLEGTGINPVPVDLHEQQLSLNQHNRALNIERAHDERSEASGPQLLPVRALNEVFIGESLSSRASYYEISVDDGPWEKQKSSGLNLCTGTGSKAWSFNINRVATQAVEDVLNIAKRQGNLSLPLNRELVEKVTNEYNESLLYSPEEPKILFSIREPIANRVFSSSRQRCFSSKVCVRSRCWDACMVVDGGTSFEFNDGAIASMMINKEDELRTVLLEQ [NADK2]
solubility in G1/S (log2) (HeLa Kyoto [1]): 0.0487
melting temperature (HeLa Kyoto [2]; cell cycle stage: G1/S): 55.3 °C
melting temperature (HeLa Kyoto [2]; cell cycle stage: mitosis): 55.5 °C
solubility change mitosis (log2) (HeLa Kyoto [3]): -0.121
thermal stability score (HeLa Kyoto [4]; [5]): -0.37
thermal stability score (HeLa Kyoto [4]; cell cycle stage: mitosis): 2.77
